# B1: sdAb clone A9 (VHH)
# VHH: EVQLQASGGGLVQAGESLRLSCVVSGGAFRIMDMGWFRQVPGKQREVVGVISSGGYTNYADSVKGRFTISRDNAKRTVYLHMNSLKPEDTAVYYCNIIPKSDQGAVNTWGKGTLVSVSS
# B2: sdAb clone B6 (VHH)
# VHH: EVQLQASGGGLVQAGDSLRLSCVAVSGRTISTFAMGWFRQAPGKEREFVATINWSGSSARYADPVEGRFTISRDDAKNTVYLEMSSLKPGDSAVYYCASGRYLGGITSYSQGDFAPWGQGTQVTVSS
# notes: also called Bt-B6
# B3: sdAb clone E10 (VHH)
# VHH: DVQLQASGGGLVQAGGSLRLSCAASARTFYTMGWFRQVLGKDREFVGAIRWGVYATTRYADSVKGRFSISRDDATNTVALQMNSLKPEDTAVYYCAARAGPLGFELSATSSAEYDYWGQGTQVTVSS
# Columns and labels:
# [1] = molecular target: SARS-CoV-2 receptor-binding domain (SARS-CoV-2, UniProt P0DTC2 319-541); assay: direct-binding MagPlex assay, biotinylated sdAb on RBD-coated microspheres
# [2] = molecular target: SARS-CoV-2 nucleocapsid protein (recombinant) (SARS-CoV-2, UniProt P0DTC9 1-419); assay: SPR (ProteOn XPR36), N immobilised on chip, sdAb in flow, 25 C
Binder,binding result [1],Kd [2] [nM],koff [2] [s⁻¹],kon [2] [M⁻¹ s⁻¹]
B1,no binding,–,–,–
B2,no binding,1.6,0.0003,190000
B3,no binding,14,0.00095,69000

# Reference: US20220135654A1 (GOVERNMENT OF THE UNITED STATES OF AMERICA AS REPRESENTED …, published 2022)
